Source: publication PMC3044691 (2011)

Biological target: monomeric sCD4 (D1D2)
Test: SPR

B1: JR-FL gp120 (natural protein)
chain: not shown
Kd: 12 nM
